Measurements from publication PMC7247208, “A cell suspension based uptake method to study high affinity glucosinolate transporters” (Plant Methods, 2020).

B1: AtGTR2 (Arabidopsis thaliana) (protein)
chain: MERKPLELESTDNHQNPSSAVYGGSVTAVDSVEEDVQNQKKVVYRGWKVMPFIIGNETFEKLGIIGTLSNLLVYLTAVFNLKSITAATIINAFSGTINFGTFVAAFLCDTYFGRYKTLSVAVIACFLGSFVILLTAAVPQLHPAACGTAADSICNGPSGGQIAFLLMGLGFLVVGAGGIRPCNLAFGADQFNPKSESGKRGIDSFFNWYFFTFTFAQILSLTLVVYVQSNVSWTIGLTIPAVLMFLACLIFFAGDKLYVKIKASGSPLAGIAQVIAVAIKKRGLKPAKQPWLNLYNYYPPKYANSKLKYTDQFRFLDKAAILTPEDKLQPDGKPADPWKLCTMQQVEEVKCIVRVLPIWFASSIYYLTITQQMTYPVFQALQSDRRLGSGGFVIPAATYVVFLMTGMTVFIVVYDRVLVPTMRRITGLDTGITLLQRIGTGIFFATASLVVAGFVEERRRTFALTKPTLGMAPRKGEISSMSAMWLIPQLSLAGVAEAFAAIGQMEFYYKQFPENMRSFAGSIFYVGGGVSSYLGSFLIATVHRTTQNSSGGNWLAEDLNKGRLDLFYFMIAGILAVNFAYFLVMSRWYRYKGSDDEVTTYETNENIIKQQDKNVA
notes: full-length CDS from Col-0 leaf cDNA, untagged, pEarleyGate100 (CaMV35S), stably expressed in cotton CCL-1 cells; C-terminal YFP fusion only for localization
B2: AtGTR1 (Arabidopsis thaliana) (protein)
chain: MKSRVILNHRDRRDKNHNNNNTNHYTQVDTMERKPLEVEPSTTTTNTDVVDSFEEEQRKIVYRGWKVMPFIIGNETFEKLGIIGTLSNLLVYLTSVFNLKSYTAATIINAFSGTINFGTFIAAFLCDTYFGRYKTLSVAVIACFLGSFVILLTAAIPSLHPVACGNKISCEGPSVGQILFLLMGLGFLVVGAGGIRPCNLAFGADQFNPKSESGKKGINSFFNWYFFTFTFAQIISLTAVVYIQSNVSWTIGLIIPVALMFLACVIFFAGDRLYVKVKASGSPLAGIARVIAAAIKKRGLKPVKQPWVNLYNHIPSNYANTTLKYTDQFRFLDKAAIMTPEEKLNSDGTASDPWKLCTLQQVEEVKCIVRVIPIWFASTIYYLAITIQMTYPVFQALQSDRRLGSGGFRIPAATYVVFLMTGMTVFIIFYDRVLVPSLRRVTGLETGISLLQRIGAGFTFAIMSLLVSGFIEERRRNFALTKPTLGMAPRTGEISSMSALWLIPQLTLAGIAEAFAAIGQMEFYYKQFPENMKSFAGSIFYVGAGVSSYLASFLISTVHRTTAHSPSGNWLAEDLNKAKLDYFYFMLTGLMVVNMAYFLLMARWYRYKGGNDEDITEIETNEEETKQQQLQDKNSV
notes: as for B1

Columns and labels:
Settings in all cases: pH 5, MSOT3 without nitrate salts, 1 h uptake, transport
[1] = substrate: O=S(=O)(O)O/N=C(/Cc1ccc(O)cc1)S[C@@H]1O[C@H](CO)[C@@H](O)[C@H](O)[C@H]1O; test: cells, lysate or membranes
[2] = substrate: C=CC/C(=N/OS(=O)(=O)O)S[C@@H]1O[C@H](CO)[C@@H](O)[C@H](O)[C@H]1O; test: uptake into CCL-1 cotton suspension cells, HPLC of desulfoglucosinolates, Michaelis-Menten fit; format: cell-based, Arabidopsis thaliana
[3] = substrate: C=CCC/C(=N\OS(=O)(=O)O)S[C@@H]1O[C@H](CO)[C@@H](O)[C@H](O)[C@H]1O; test: as above; format: cell-based, Arabidopsis thaliana

| Protein | Km [1] | Vmax [1] | Km [2] | Vmax [2] | Km [3] | Vmax [3] |
| --- | --- | --- | --- | --- | --- | --- |
| B1 | 166.7 ± 40 µM | 1.2e-06 µmol/min/mg | 436.7 ± 154 µM | 4.6e-06 µmol/min/mg | 153.3 ± 59 µM | 2.9e-06 µmol/min/mg |
| B2 | 104.5 ± 56 µM | 5e-07 µmol/min/mg | 117.9 ± 44 µM | 5e-07 µmol/min/mg | 279.1 ± 109 µM | 3.4e-06 µmol/min/mg |
